Reference: patent US20110182911A1 (published 2011)
Blank lines part the entries; values can stand above or below the molecule they belong to.

Columns and labels:
[1] = biological target: recombinant human BMP-4 (human) (UniProt P12644); assay: cell-based or functional assay
recombinant human BMP-2 = recombinant human BMP-2 (human, UniProt P12643 283-396); assay: cell-based or functional assay
Sequence of recombinant human BMP-2 (P12643 283-396 limits assumed): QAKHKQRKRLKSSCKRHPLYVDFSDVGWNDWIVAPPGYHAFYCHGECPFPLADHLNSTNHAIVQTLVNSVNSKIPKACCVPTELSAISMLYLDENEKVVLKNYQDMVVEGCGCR

Sequence of recombinant human BMP-4 (human) (P12644 293-408 limits assumed): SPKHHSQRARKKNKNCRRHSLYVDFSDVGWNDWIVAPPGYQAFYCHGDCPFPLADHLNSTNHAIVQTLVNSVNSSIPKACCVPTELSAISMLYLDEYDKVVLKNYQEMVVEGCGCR

alkaline phosphatase (ALP) activity in C2C12 cells; molar ratio of antagonist to BMP at which the BMP-induced increase is completely inhibited (molar ratio (bAHSG:rhBMP-4)) [1]: > 56800
alkaline phosphatase (ALP) activity in C2C12 cells; molar ratio of antagonist to BMP at which the BMP-induced increase is completely inhibited (molar ratio (fetuin:rhBMP-4)) [1]: > 55000
Molecule: bovine fetuin (from UniProt P12763 19-359)

alkaline phosphatase (ALP) activity in C2C12 cells; molar ratio of antagonist to BMP at which the BMP-induced increase is completely inhibited (recombinant human BMP-2): 1.1 molar ratio (rmNGN:rhBMP-2)
B1: recombinant mouse Noggin (other, UniProt P97466 28-232, looked up)
chain: QHYLHIRPAPSDNLPLVDLIEHPDPIFDPKEKDLNETLLRSLLGGHYDPGFMATSPPEDRPGGGGGPAGGAEDLAELDQLLRQRPSGAMPSEIKGLEFSEGLAQGKKQRLSKKLRRKLQMWLWSQTFCPVLYAWNDLGSRFWPRYVKVGSCFSKRSCSVPEGMVCKPSKSVHLTVLRWRCQRRGGQRCGWIPIQYPIISECKCSC
